For the data set, the target named is T1, endogenous tobacco RUBISCO small subunit, P69249.
T1 chain: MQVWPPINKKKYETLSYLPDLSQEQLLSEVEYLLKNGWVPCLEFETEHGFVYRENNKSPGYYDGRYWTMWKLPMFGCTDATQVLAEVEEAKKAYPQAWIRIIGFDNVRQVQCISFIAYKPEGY

B1: Griffithsia monilis RUBISCO large subunit with C-terminal 6-His tag, product of the chloroplast transgene cpGMNrbcL (pTCP104 tobacco) (protein)
chain: MANSVEERTRIKNERYESGVIPYAKMGYWDPNYAVKDTDILALFRVSPQPGVDPVEASAAVAGESSTATWTVVWTDLLTACDLYRAKAYKVESVPNTSDQYFAYISYDIDLFEEGSIANLTASIIGNVFGFKAVKALRLEDMRIPVAYLKTFQGPATGIVVERERMDKFGRPFLGATVKPKLGLSGKNYGRVVYEGLRGGLDFLKDDENINSQPFMRWKERFLYSIEAVNRSIAATGEVKGHYMNVTAATMEEMYERAEFAKQLGTVIIMIDLVIGYTAIQTMGIWARKNDMILHLHRAGNSTYSRQKIHGMNFRVICKWMRMAGVDHIHAGTVVGKLEGDPLMIRGFYNTLLLPYLEVNLPQGIFFQQDWASLRKVTPVASGGIHCGQMHQLLDYLGNDVVLQFGGGTIGHPDGIQAGATANRVALESMVIARNEGRDYVAEGPQILRDAAKTCGPLQTALDLWKDITFNYTSTDTADFVETPTANVHHHHHH
Turning to B1, the RUBISCO Activity (RuBP-dependent 14CO2 fixation), pTCP104-1 tobacco crude extract amounted to 0 mU/mg and the RUBISCO Activity (RuBP-dependent 14CO2 fixation), pTCP104-1 tobacco purified rubisco amounted to 2.1 mU/mg.

These data come from patent US20090172842.
